From patent US20140057857A1 (RESEARCH FOUNDATION FOR THE STATE UNIVERSITY OF NEW YORK, published 2014) come the findings set out here.

Numbered stars: 1 amine (or outer) side, 2 acyl side, 3 side chain; on linkers, the order of the positions; unused ones are H or OH. Bridge positions count the residues as written; N and C are the ends. Square brackets hold non-standard residues; d marks the D form. Ends that are not written are not given here. CH2(3,3'-bipyridine-6,6')CH2 = c1cc(C[*:1])ncc1-c1ccc(C[*:2])nc1; Biphenyl(4,4'-CH2)2 = c1cc(-c2ccc(C[*:2])cc2)ccc1C[*:1]

To fix the notation:
T1: GST-MDMX containing full-length human MDMX (human, UniProt O15151 1-490)
T1 construct: mature; MDMX', expressed in E. coli as a GST fusion; 'mature' stands for full-length; not shown: GST tag
T1 sequence (looked up): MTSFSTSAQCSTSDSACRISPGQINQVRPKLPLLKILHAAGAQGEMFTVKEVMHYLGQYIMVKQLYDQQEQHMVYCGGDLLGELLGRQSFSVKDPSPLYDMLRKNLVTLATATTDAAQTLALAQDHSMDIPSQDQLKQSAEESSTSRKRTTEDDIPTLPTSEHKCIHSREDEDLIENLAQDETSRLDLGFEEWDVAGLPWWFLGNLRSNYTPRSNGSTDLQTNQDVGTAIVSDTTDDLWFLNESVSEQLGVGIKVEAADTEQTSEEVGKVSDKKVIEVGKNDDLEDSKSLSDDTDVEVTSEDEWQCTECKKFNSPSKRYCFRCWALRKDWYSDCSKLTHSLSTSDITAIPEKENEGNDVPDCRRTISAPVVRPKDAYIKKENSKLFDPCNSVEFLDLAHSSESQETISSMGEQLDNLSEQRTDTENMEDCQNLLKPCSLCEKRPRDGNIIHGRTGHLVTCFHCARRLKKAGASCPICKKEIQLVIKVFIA

B1: Cross-linked Noxa peptide 5b (Bpy, L,L-cysteines at 77/84) (peptide)
peptide: AAXLRRIGDXVNLRQKLLN
modifications: Cys 3 and Cys 10 of the peptide (NoxaB 77 and 84) cross-linked by Bpy; N-terminal acetyl; C-terminal amide
B2: Cross-linked Noxa peptide 5a (Bph, L,L-cysteines at 77/84) (peptide)
peptide: AAXLRRIGDXVNLRQKLLN
modifications: Cys 3 and Cys 10 of the peptide (NoxaB 77 and 84) cross-linked by Bph; N-terminal acetyl; C-terminal amide
B3: Cross-linked Noxa peptide 6b (Bpy, D-Cys 77 / L-Cys 84) (peptide)
peptide: AAXLRRIGDXVNLRQKLLN
modifications: D-cysteine at position 3; D-Cys 3 and L-Cys 10 cross-linked by Bpy; N-terminal acetyl; C-terminal amide
B4: Cross-linked Noxa peptide 6a (Bph, D-Cys 77 / L-Cys 84) (peptide)
peptide: AAXLRRIGDXVNLRQKLLN
modifications: D-cysteine at position 3; D-Cys 3 and L-Cys 10 cross-linked by Bph; N-terminal acetyl; C-terminal amide
B5: Cross-linked Noxa peptide 7a (Bph, L,L-cysteines at 80/87) (peptide)
peptide: Ac-AAQLRCIGDKVNCRQKLLN-NH2
modifications: linker 6-13 via Biphenyl(4,4'-CH2)2
SMILES: CC[C@H](C)[C@@H]1NC(=O)[C@@H](NC(=O)[C@H](CCCNC(=N)N)NC(=O)[C@H](CC(C)C)NC(=O)[C@H](CCC(N)=O)NC(=O)[C@H](C)NC(=O)[C@H](C)NC(C)=O)CSCc2ccc(cc2)-c2ccc(cc2)CSC[C@@H](C(=O)N[C@@H](CCCNC(=N)N)C(=O)N[C@@H](CCC(N)=O)C(=O)N[C@@H](CCCCN)C(=O)N[C@@H](CC(C)C)C(=O)N[C@@H](CC(C)C)C(=O)N[C@@H](CC(N)=O)C(N)=O)NC(=O)[C@H](CC(N)=O)NC(=O)[C@H](C(C)C)NC(=O)[C@H](CCCCN)NC(=O)[C@H](CC(=O)O)NC(=O)CNC1=O
notes: Printed as AAQLRC'IGDKVNC'RQKLLN
B6: Cross-linked Noxa peptide 8a (Bph, alpha-methyl-L-cysteines at 77/84) (peptide)
peptide: AAXLRRIGDXVNLRQKLLN
modifications: alpha-methyl-L-cysteine at positions 3 and 10, cross-linked by Bph; N-terminal acetyl; C-terminal amide
B7: Fluorescein-labeled cross-linked Noxa peptide 6a (peptide)
peptide: AAXLRRIGDXVNLRQKLLN
modifications: N-terminal FITC-Ahx; D-cysteine at position 3; D-Cys 3 and L-Cys 10 cross-linked by Bph; C-terminal amide
notes: also called Fl-6a; Fluo-6a
B8: PDI analog 3 (linear (D,L)-dicysteine peptide) (peptide)
peptide: LTF[dC]HYWAQLCS-NH2
modifications: not fully specified (N-terminus); printed as LTFcHYWAQLCS; cysteine pairing not given here
notes: not cross-linked; also called peptide 3
B9: PDI analog 2b (Bpy cross-linked, two arginines) (peptide)
peptide: Ac-LTFCRYWARLCS-NH2
modifications: linker 4-11 via CH2(3,3'-bipyridine-6,6')CH2
SMILES: CC(=O)N[C@@H](CC(C)C)C(=O)N[C@H](C(=O)N[C@@H](Cc1ccccc1)C(=O)N[C@H]1CSCc2ccc(cn2)-c2ccc(nc2)CSC[C@@H](C(=O)N[C@@H](CO)C(N)=O)NC(=O)[C@H](CC(C)C)NC(=O)[C@H](CCCNC(=N)N)NC(=O)[C@H](C)NC(=O)[C@H](Cc2c[nH]c3ccccc23)NC(=O)[C@H](Cc2ccc(O)cc2)NC(=O)[C@H](CCCNC(=N)N)NC1=O)[C@@H](C)O
notes: Printed as LTFC"RYWARLC"S
B10: PDI analog 3a (Bph cross-linked D,L-dicysteine peptide) (peptide)
peptide: Ac-LTF[dC]HYWAQLCS-NH2
modifications: linker 4-11 via Biphenyl(4,4'-CH2)2
SMILES: CC(=O)N[C@@H](CC(C)C)C(=O)N[C@H](C(=O)N[C@@H](Cc1ccccc1)C(=O)N[C@@H]1CSCc2ccc(cc2)-c2ccc(cc2)CSC[C@@H](C(=O)N[C@@H](CO)C(N)=O)NC(=O)[C@H](CC(C)C)NC(=O)[C@H](CCC(N)=O)NC(=O)[C@H](C)NC(=O)[C@H](Cc2c[nH]c3ccccc23)NC(=O)[C@H](Cc2ccc(O)cc2)NC(=O)[C@H](Cc2c[nH]cn2)NC1=O)[C@@H](C)O
notes: Printed as LTFc'HYWAQLC'S
B11: PDI analog 1a (Bph cross-linked L,L-dicysteine peptide) (peptide)
peptide: Ac-LTFCHYWAQLCS-NH2
modifications: linker 4-11 via Biphenyl(4,4'-CH2)2
notes: Printed as LTFC'HYWAQLC'S (C' = Bph-linked cysteine)
B12: PDI analog 1b (Bpy cross-linked L,L-dicysteine peptide) (peptide)
peptide: Ac-LTFCHYWAQLCS-NH2
modifications: linker 4-11 via CH2(3,3'-bipyridine-6,6')CH2
SMILES: CC(=O)N[C@@H](CC(C)C)C(=O)N[C@H](C(=O)N[C@@H](Cc1ccccc1)C(=O)N[C@H]1CSCc2ccc(cn2)-c2ccc(nc2)CSC[C@@H](C(=O)N[C@@H](CO)C(N)=O)NC(=O)[C@H](CC(C)C)NC(=O)[C@H](CCC(N)=O)NC(=O)[C@H](C)NC(=O)[C@H](Cc2c[nH]c3ccccc23)NC(=O)[C@H](Cc2ccc(O)cc2)NC(=O)[C@H](Cc2c[nH]cn2)NC1=O)[C@@H](C)O
notes: Printed as LTFC"HYWAQLC"S (C" = Bpy-linked cysteine)
B13: PDI analog 3b (Bpy cross-linked D,L-dicysteine peptide) (peptide)
peptide: Ac-LTF[dC]HYWAQLCS-NH2
modifications: linker 4-11 via CH2(3,3'-bipyridine-6,6')CH2
SMILES: CC(=O)N[C@@H](CC(C)C)C(=O)N[C@H](C(=O)N[C@@H](Cc1ccccc1)C(=O)N[C@@H]1CSCc2ccc(cn2)-c2ccc(nc2)CSC[C@@H](C(=O)N[C@@H](CO)C(N)=O)NC(=O)[C@H](CC(C)C)NC(=O)[C@H](CCC(N)=O)NC(=O)[C@H](C)NC(=O)[C@H](Cc2c[nH]c3ccccc23)NC(=O)[C@H](Cc2ccc(O)cc2)NC(=O)[C@H](Cc2c[nH]cn2)NC1=O)[C@@H](C)O
notes: Printed as LTFc"HYWAQLC"S
B14: PDI analog 4b (Bpy cross-linked D,L-dicysteine peptide, two arginines) (peptide)
peptide: Ac-LTF[dC]RYWARLCS-NH2
modifications: linker 4-11 via CH2(3,3'-bipyridine-6,6')CH2
SMILES: CC(=O)N[C@@H](CC(C)C)C(=O)N[C@H](C(=O)N[C@@H](Cc1ccccc1)C(=O)N[C@@H]1CSCc2ccc(cn2)-c2ccc(nc2)CSC[C@@H](C(=O)N[C@@H](CO)C(N)=O)NC(=O)[C@H](CC(C)C)NC(=O)[C@H](CCCNC(=N)N)NC(=O)[C@H](C)NC(=O)[C@H](Cc2c[nH]c3ccccc23)NC(=O)[C@H](Cc2ccc(O)cc2)NC(=O)[C@H](CCCNC(=N)N)NC1=O)[C@@H](C)O
notes: Printed as LTFc"RYWARLC"S

One assay concerns the target GST-Mcl-1. Put plainly: competitive FP assay: displacement of fluorescein-labeled Bak from GST-Mcl-1.
In the case of B1, the concentration for half-maximal inhibition (IC50) amounted to 45 nM.
Take B2: the IC50 amounted to 18 nM.
Same read-out and setting: to B3 belongs 140 nM; to B4, 73 nM.
B5 had an IC50 of 32 nM.
Molecule B6 returned an IC50 of 230 nM.

The next assay deals with GST-Mcl-1. Put plainly: competitive FP assay, against the parent linear peptide.
Chain of GST-Mcl-1 (Q07820 whole entry): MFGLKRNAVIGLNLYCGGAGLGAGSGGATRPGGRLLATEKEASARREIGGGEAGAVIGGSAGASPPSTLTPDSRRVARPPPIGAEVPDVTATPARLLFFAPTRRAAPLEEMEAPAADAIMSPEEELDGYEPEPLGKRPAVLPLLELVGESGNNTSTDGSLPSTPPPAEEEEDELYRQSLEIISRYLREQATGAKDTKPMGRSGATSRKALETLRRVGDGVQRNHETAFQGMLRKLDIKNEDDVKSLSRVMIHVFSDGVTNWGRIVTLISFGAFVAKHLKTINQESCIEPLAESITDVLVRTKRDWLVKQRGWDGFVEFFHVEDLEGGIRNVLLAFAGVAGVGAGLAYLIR
As for B2, the “fold increase in activity” value is 67 fold.
On to B4, for which the “fold increase in activity” value worked out at 37 fold.

Another assay addresses GST-Mcl-1. Put plainly: fluorescence polarization assay, Mcl-1 against Bcl-xL.
As to AAXLRRIGDXVNLRQKLLN (N-terminal FITC-Ahx; Cys 3 and Cys 10 cross-linked by Bph; C-terminal amide, also called Fl-5a; Fluo-5a) [Fluorescein-labeled cross-linked Noxa peptide 5a], the “fold selectivity for Mcl-1 over Bcl-xL” value is over 2000 fold.
As to B7, the “fold selectivity for Mcl-1 over Bcl-xL” value was over 2000 fold.

The target of the next assay is T1, GST-MDMX containing full-length human …. Put plainly: competition ELISA: peptide inhibits GST-MDMX binding to coated His6-p53.
Consider B8, for which the IC50 amounted to 339 nM.
With B9, the IC50 came out at 1520 nM.
The same measure, in the same setting: next, B10: 22 nM; Ac-LTFCRYWARLCS-NH2 (linker 4-11 via Biphenyl(4,4'-CH2)2, Printed as LTFC'RYWARLC'S) [PDI analog 2a (Bph cross-linked, two arginines)]: 5520 nM.
On to B11, for which the IC50 is 4810 nM.
As for B12, the IC50 was 890 nM.
The molecule Ac-LTF[dC]RYWARLCS-NH2 (linker 4-11 via Biphenyl(4,4'-CH2)2, Printed as LTFc'RYWARLC'S) [PDI analog 4a (Bph cross-linked D,L-dicysteine peptide, two arginines)] showed an IC50 of 4490 nM.
For the molecule Ac-LTFCHYWAQLCS-NH2 (cysteine pairing not given here, not cross-linked; also called peptide 1) [PDI analog 1 (linear L,L-dicysteine peptide)], the IC50 worked out at 1850 nM.
In turn, B13 came in with an IC50 of 14 nM.
Molecule B14 displayed an IC50 of 1150 nM.

Another assay has the same target. Put plainly: competition ELISA, against linear peptide 3. On the technique in general: In an ELISA, binding on a coated surface is turned into a signal by an enzyme label.
B10: the “fold increase in MDMX activity” value was 15 fold.
For the molecule B13, the “fold increase in MDMX activity” value is 24 fold.

In a further assay the target is T2, GST-MDM2 containing full-length human MDM2 (human, UniProt Q00987 1-491).
T2 construct: mature; 'mature' stands for full-length; not shown: GST tag
T2 sequence (Q00987 whole entry): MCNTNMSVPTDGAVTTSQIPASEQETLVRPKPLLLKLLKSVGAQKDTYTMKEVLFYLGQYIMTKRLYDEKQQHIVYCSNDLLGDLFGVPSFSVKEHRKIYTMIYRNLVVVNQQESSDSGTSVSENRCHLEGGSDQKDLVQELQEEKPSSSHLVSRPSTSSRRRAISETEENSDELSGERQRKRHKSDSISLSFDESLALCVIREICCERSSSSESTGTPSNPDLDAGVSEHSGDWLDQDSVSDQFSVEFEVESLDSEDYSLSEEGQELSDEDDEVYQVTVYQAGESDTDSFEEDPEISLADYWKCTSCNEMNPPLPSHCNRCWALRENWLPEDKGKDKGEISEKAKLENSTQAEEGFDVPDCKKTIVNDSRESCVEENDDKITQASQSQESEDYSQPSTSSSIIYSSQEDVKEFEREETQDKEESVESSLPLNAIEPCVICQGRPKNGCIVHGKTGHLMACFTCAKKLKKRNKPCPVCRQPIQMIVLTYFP
Put plainly: competition ELISA; reference not named in the sentence (peptide 1 or PDI).
With B8, the “fold increase in MDM2 activity” value was over 3 fold.

The target in the next assay is GST-Mcl-1. Put plainly: fluorescence polarization assay, labeled peptide on GST-Mcl-1. On the technique in general: In fluorescence polarisation assays a small probe gives low polarisation when free and higher when bound to something large.
AAXLRRIGDXVNLRQKLLN (N-terminal FITC-Ahx; Cys 3 and Cys 10 cross-linked by Bph; C-terminal amide, also called Fl-5a; Fluo-5a) [Fluorescein-labeled cross-linked Noxa peptide 5a] showed a Kd of 0.8 nM.
Take B7: binding was characterised by a dissociation constant (Kd) of 0.7 nM.

Another assay addresses GST-Bcl-xL. Put plainly: fluorescence polarization assay, labeled peptide on GST-Bcl-xL.
Chain of GST-Bcl-xL (Q07817 whole entry): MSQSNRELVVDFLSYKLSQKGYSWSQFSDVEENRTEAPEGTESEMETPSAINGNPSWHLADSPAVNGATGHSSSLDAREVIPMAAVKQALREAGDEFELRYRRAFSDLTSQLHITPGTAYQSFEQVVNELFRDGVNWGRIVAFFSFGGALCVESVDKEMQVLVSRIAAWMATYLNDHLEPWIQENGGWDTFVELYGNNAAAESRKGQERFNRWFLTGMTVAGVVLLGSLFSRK
The molecule AAXLRRIGDXVNLRQKLLN (N-terminal FITC-Ahx; Cys 3 and Cys 10 cross-linked by Bph; C-terminal amide, also called Fl-5a; Fluo-5a) [Fluorescein-labeled cross-linked Noxa peptide 5a] showed a Kd of over 2000 nM.
Molecule B7 returned a Kd of over 2000 nM.

The target of the next assay is T2, GST-MDM2 containing full-length human …. Put plainly: competition ELISA: peptide inhibits GST-MDM2 binding to coated His6-p53.
For B8, the IC50 stood at 13 nM. This counts as double-digit nanomolar.
B10 returned an IC50 of 8.3 nM.
Consider Ac-LTFCRYWARLCS-NH2 (linker 4-11 via Biphenyl(4,4'-CH2)2, Printed as LTFC'RYWARLC'S) [PDI analog 2a (Bph cross-linked, two arginines)], for which the IC50 was 244 nM.
Still for that read-out and setting: to B11 belongs 39 nM; to B12, 35 nM; to Ac-LTF[dC]RYWARLCS-NH2 (linker 4-11 via Biphenyl(4,4'-CH2)2, Printed as LTFc'RYWARLC'S) [PDI analog 4a (Bph cross-linked D,L-dicysteine peptide, two arginines)], 208 nM.
For Ac-LTFCHYWAQLCS-NH2 (cysteine pairing not given here, not cross-linked; also called peptide 1) [PDI analog 1 (linear L,L-dicysteine peptide)], the IC50 was 57 nM.
The same measure, in the same setting: to B13 belongs 5.4 nM.

The target of another assay is GST-Mcl-1. Put plainly: ELISA (format not described; target taken to be Mcl-1).
B1: the 50% inhibitory concentration (IC50) worked out at 25 nM.
In turn, B2 yielded an IC50 of 75 nM. This IC50 lies about 3-fold higher than the previous one.
Consider B3, for which half-maximal inhibition (IC50) was put at 140 nM.
B4 registered an IC50 of 260 nM. Compared with the last molecule, the IC50 is about 1.9-fold higher.
In the case of B5, the IC50 stood at 37 nM.

For another assay, the target named is GST-Mcl-1. Put plainly: ELISA; the upper end is tied to 5b by Table 3 (25 nM against 340 nM).
For the molecule B1, the “fold improvement over the parent peptide” value was found to be 14 fold.

As usually defined, the IC50 is the midpoint of a concentration-inhibition curve. A word on the Kd: it is the concentration at which binding is half-saturated. A high value points to lower affinity.
